Results on 2 molecules are retold here after US20220348652A1 (ANTAIMMU BIOMED, published 2022).

What is called EC50 is the concentration that produces a half-maximal response. Low values mean a more potent agent, high ones a less potent agent.

This assay addresses T1, human CD47 expressed on CHO-CD47 cells (human, UniProt Q08722 19-323).
T1 construct: whole, on cells; also called cellular CD47; full-length CD47
The experiment in a line: flow cytometry, IgG on CHO-CD47 cells. The method, then: The anti-CD47 scFvs were respectively expressed in their IgG formats in accordance with the procedure described in Materials and Methods. CHO cells expressing CD47 (CHO-CD47 cells) and wild-type CHO cells (CHO-WT cells) were respectively treated with anti-CD47 IgGs. After washing, the binding of the anti-CD47 IgGs was detected using a polyclonal APC-conjugated anti-human IgG antibody. Relative MFI was measured by flow cytometry. Antibody R23, a reference antibody constructed according to the sequences of ADI29341 disclosed in US20200181259A1, served as a positive control in this study.
On the technique in general: In flow cytometry, cells or beads pass a laser one at a time.

B1: CD47-26 IgG (antibody, V domains shown)
VH: EVQLVESGGGLVQPGGSLRLSCAASGFTITNFYIHWVRQAPGKGLEWVAKITPYNGDTHYADSVKGRFTISADTSKNTAYLQMNSLRAEDTAVYYCTRGGYAMDYWGQGTLVTVSS
VL: DIQMTQSPSSLSASVGDRVTITCRASQDVSNYVAWYQQKPGKAPKLLIYGTSRLYPGVPSRFSGSGSGTDFTLTISSLQPEDFATYYCQQHSSYPLTFGQGTKVEIKR
notes: IgG made in CHO cells; constant domains as for m19; also called antibody CD47-26
B1: it took 2.05 µg/mL to reach a half-maximal effect (EC50).

B2: CD47-30 IgG (antibody, V domains shown)
VH: EVQLVESGGGLVQPGGSLRLSCAASGFTINNWWIHWVRQAPGKGLEWVAWIDPFNGDSDYADSVKGRFTISADTSKNTAYLQMNSLRAEDTAVYYCARGGFALDHWGQGTLVTVSS
VL: DIQMTQSPSSLSASVGDRVTITCRASQDVSHYVAWYQQKPGKAPKLLIYSTSRLYPGVPSRFSGSGSGTDFTLTISSLQPEDFATYYCQQHSSYPITFGQGTKVEIKR
notes: IgG made in CHO cells; constant domains as for m19; also called antibody CD47-30
B2 registered an EC50 of 2.67 µg/mL.
